Results from patent publication US20170369523A1, “TEMPLATE-FIXED BETA-HAIRPIN PEPTIDOMIMETICS THAT ARE LIGANDS FOR G-PROTEIN-COUPLED RECEPTORS (GPCRS) AND ARE MODULATORS OF TRANSCRIPTION FACTORS AND COACTIVATORS” (POLYPHOR AG, priority 2008, published 2017).
Bridge positions count the residues as written; N and C are the ends. Square brackets hold non-standard residues; d marks the D form. Cha = N[C@@H](CC1CCCCC1)C(=O)O; Orn = NCCC[C@H](N)C(=O)O

T1: human UTR2 receptor (human, UniProt Q9UKP6 1-389)
T1 sequence (looked up): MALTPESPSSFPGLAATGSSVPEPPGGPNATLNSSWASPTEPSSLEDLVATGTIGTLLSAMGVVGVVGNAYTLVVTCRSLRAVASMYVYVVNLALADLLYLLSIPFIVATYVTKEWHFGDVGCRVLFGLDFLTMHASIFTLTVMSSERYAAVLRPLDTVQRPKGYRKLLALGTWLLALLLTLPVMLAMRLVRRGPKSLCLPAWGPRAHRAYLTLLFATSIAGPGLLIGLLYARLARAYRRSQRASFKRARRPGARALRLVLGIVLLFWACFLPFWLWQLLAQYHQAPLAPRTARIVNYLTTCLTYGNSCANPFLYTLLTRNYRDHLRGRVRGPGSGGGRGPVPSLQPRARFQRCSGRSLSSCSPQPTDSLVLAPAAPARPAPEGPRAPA

B1: Ex. 32 (peptide)
peptide: cyclo(DCF[dW][Orn]YCV[dP]P)
modifications: disulfide 2-7
SMILES: CC(C)[C@@H]1NC(=O)[C@@H]2CSSC[C@H](NC(=O)[C@H](CC(=O)O)NC(=O)[C@@H]3CCCN3C(=O)[C@H]3CCCN3C1=O)C(=O)N[C@@H](Cc1ccccc1)C(=O)N[C@H](Cc1c[nH]c3ccccc13)C(=O)N[C@@H](CCCN)C(=O)N[C@@H](Cc1ccc(O)cc1)C(=O)N2
B2: Ex. 35 (peptide)
peptide: cyclo(DCFWKYC[Cha][dP]P)
modifications: disulfide 2-7
SMILES: NCCCC[C@@H]1NC(=O)[C@H](Cc2c[nH]c3ccccc23)NC(=O)[C@H](Cc2ccccc2)NC(=O)[C@@H]2CSSC[C@H](NC(=O)[C@H](Cc3ccc(O)cc3)NC1=O)C(=O)N[C@@H](CC1CCCCC1)C(=O)N1CCC[C@@H]1C(=O)N1CCC[C@H]1C(=O)N[C@@H](CC(=O)O)C(=O)N2

Target: T1, human UTR2 receptor
Assay: cell-based or functional assay

| Binder | IC50% (Ca2+ assay, antagonist activity; compound added prior to urotensin) [pM] |
| --- | --- |
| B1 | 30 |
| B2 | 200 |
